Each block holds one binder with its values, some of them ahead of it.
Biological target: T1, MLL4 PHD2/3 fingers (aa 227-324), 15N-labeled (human, UniProt O14686 227-324, uniformly 15N-labeled)
T1 sequence (looked up): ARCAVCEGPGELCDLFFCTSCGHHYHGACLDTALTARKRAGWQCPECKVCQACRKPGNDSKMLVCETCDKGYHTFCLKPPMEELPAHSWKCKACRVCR
Assay: NMR titration

binding result: binds
B1: ASXL1 peptide (residues 607-627 of ASXL1), wild type (peptide, UniProt Q8IXJ9 607-627, looked up)
peptide: GWTGARTLADIKARALQVRGA

binding result: binds
B2: ASXL1 peptide (residues 607-627 of ASXL1) A611T (peptide, UniProt Q8IXJ9 607-627, looked up)
peptide: GWTGTRTLADIKARALQVRGA

binding result: binds
B3: ASXL2 peptide (residues 650-670 of ASXL2) R655I (peptide, UniProt Q76L83 650-670, looked up)
peptide: NRTGAITLADIKAKAQLVKAQ
